Assay results taken from patent US20110113865A1, “USING CARDIAC TROPONIN FOR MONITORING ANTI-ANGIOGENESIS THERAPY” (priority 2008, published 2011).

Key:
acute coronary syndromes = conditions: treated patients; Annals of Oncology 2007; cited from earlier work
[1] = Smith 2000; cited from earlier work
[2] = 48 hours at room temperature or at 4° Celsius; cited from earlier work
[3] = system: troponin T and/or NT-proBNP; experiment: Levels of troponin T and/or NT-proBNP before and during therapy in 27 patients; assay type: in vivo, human
Description: Examples are shown herein below.

cardiovascular system = conditions: human, in vivo
Protocol: Three years later, advanced colorectal cancer is diagnosed necessitating a suitable cancer therapy. The left ventricular ejection fraction (LVEF) is determined by echocardiography (40%) indicating a minor systolic dysfunction. Moreover, the amounts of a troponin T (12 pg/ml) and NT-proBNP (510 pg/ml) are determined in a sample of the patient. The patient is subjected to a cardiac stress test showing that a region of the posterior myocardial wall has a dysfunctional contractility (reversible perfusion defects). Coronary angiography is carried out indicating 80% stenosis of the artery that supplies the region of dysfunctional contractility with blood. Two weeks after successful revascularization of the affected myocardial regions, troponin T (6 pg/ml) and NT-proBNP (180 pg/ml) are determined again. A therapy with VEGF-inhibitors is started; troponin T and NT-proBNP are measured monthly. During the therapy with VEGF-inhibitors the levels of these two biomarkers remain stable. Also, the therapy is effective indicated by a reduced tumor size as well as by reduced CEA levels (carcinoembryonic antigen). […] Examples are shown herein below.

troponin T = conditions: human, in vivo
NT-proBNP = conditions: human, in vivo
[4] = system: metastatic colorectal cancer; conditions: cited from earlier work

## CNC(=O)c1cc(Oc2ccc(NC(=O)Nc3ccc(Cl)c(C(F)(F)F)c3)cc2)ccn1 [sorafenib]
Acute coronary syndromes
  patients with induced acute coronary syndromes: 2.9%

## BNP: Brain Natriuretic Peptide, active hormone, 32 amino acids
[1]
  in-vivo half-life: 0.333 h
[2]
  concentration loss on storage: at least 20%

## Bevacizumab: monoclonal antibody against the vascular endothelial growth factor (VEGF)
[3]; 27 patients, serum, before vs during therapy
  patients in whom the levels of the markers remained unchanged (no significant increase): more than 80%
[3]; patient 4208, day 13 vs day 57 after therapy start
  change of the measured markers (Troponin T and NT-proBNP): Significant increases
Cardiovascular system
  adverse side effects on the cardiovascular system: no adverse side effects on the cardiovascular system
Troponin T
  change of troponin T during treatment: further increase of troponin T
NT-proBNP
  NT-proBNP level: 1916 pg/mL
[4]
  survival: significantly improves survival

B1: NT-proBNP: N-terminal pro peptide of proBNP, 76 amino acids (protein, UniProt P16860 27-102, looked up)
NT-proBNP: HPLGSPGSASDLETSGLQEQRNHLQGKLSELQVEQTSLEPLQESPRPTGVWKSREVATEGIRGHRKMVLYTLRAPR
modifications: NT-proBNP
notes: N-terminal pro peptide of proBNP, 76 amino acids
[1]
  in-vivo half-life: 2 h
